Results taken from IntAct's records for PubMed 15024067.

B1: Serine/threonine-protein kinase RAD53 (Saccharomyces cerevisiae), P22216 (parent)
chain: MENITQPTQQSTQATQRFLIEKFSQEQIGENIVCRVICTTGQIPIRDLSADISQVLKEKRSIKKVWTFGRNPACDYHLGNISRLSNKHFQILLGEDGNLLLNDISTNGTWLNGQKVEKNSNQLLSQGDEITVGVGVESDILSLVIFINDKFKQCLEQNKVDRIRSNLKNTSKIASPGLTSSTASSMVANKTGIFKDFSIIDEVVGQGAFATVKKAIERTTGKTFAVKIISKRKVIGNMDGVTRELEVLQKLNHPRIVRLKGFYEDTESYYMVMEFVSGGDLMDFVAAHGAVGEDAGREISRQILTAIKYIHSMGISHRDLKPDNILIEQDDPVLVKITDFGLAKVQGNGSFMKTFCGTLAYVAPEVIRGKDTSVSPDEYEERNEYSSLVDMWSMGCLVYVILTGHLPFSGSTQDQLYKQIGRGSYHEGPLKDFRISEEARDFIDSLLQVDPNNRSTAAKALNHPWIKMSPLGSQSYGDFSQISLSQSLSQQKLLENMDDAQYEFVKAQRKLQMEQQLQEQDQEDQDGKIQGFKIPAHAPIRYTQPKSIEAETREQKLLHSNNTENVKSSKKKGNGRFLTLKPLPDSIIQESLEIQQGVNPFFIGRSEDCNCKIEDNRLSRVHCFIFKKRHAVGKSMYESPAQGLDDIWYCHTGTNVSYLNNNRMIQGTKFLLQDGDEIKIIWDKNNKFVIGFKVEINDTTGLFNEGLGMLQEQRVVLKQTAEEKDLVKKLTQMMAAQRANQPSASSSSMSAKKPPVSDTNNNGNNSVLNDLVESPINANTGNILKRIHSVSLSQSQIDPSKKVKRAKLDQTSKGPENLQFS
partner: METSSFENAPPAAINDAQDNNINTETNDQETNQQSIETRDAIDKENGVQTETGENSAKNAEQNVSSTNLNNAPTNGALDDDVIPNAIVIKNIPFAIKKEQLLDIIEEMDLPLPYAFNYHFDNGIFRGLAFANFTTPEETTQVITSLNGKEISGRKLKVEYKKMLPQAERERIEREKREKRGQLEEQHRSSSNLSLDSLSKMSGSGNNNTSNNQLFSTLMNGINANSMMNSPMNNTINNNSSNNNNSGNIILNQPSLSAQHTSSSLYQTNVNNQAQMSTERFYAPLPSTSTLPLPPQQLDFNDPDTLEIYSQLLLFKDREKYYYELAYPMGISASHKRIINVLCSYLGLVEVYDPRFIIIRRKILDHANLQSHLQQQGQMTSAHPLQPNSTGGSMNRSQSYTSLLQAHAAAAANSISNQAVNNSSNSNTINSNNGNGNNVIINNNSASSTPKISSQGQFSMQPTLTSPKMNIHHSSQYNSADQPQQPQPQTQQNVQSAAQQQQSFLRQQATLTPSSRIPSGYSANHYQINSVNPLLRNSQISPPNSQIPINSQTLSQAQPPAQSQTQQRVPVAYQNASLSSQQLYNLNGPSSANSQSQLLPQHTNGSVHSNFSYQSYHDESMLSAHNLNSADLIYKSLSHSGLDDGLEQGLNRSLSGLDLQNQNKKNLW
B2: RNA-binding protein PIN4 (Saccharomyces cerevisiae), P34217 (parent)
chain: B1 partner

Variants of: B1
Conditions: with pin4_yeast PIN4, P34217

Row | effect of a mutation on the interaction | Variant
1 | disrupting interaction | R70K
2 | disrupting interaction | R70A
3 | disrupting interaction | S105T
4 | disrupting interaction | N107A

Variants of: B2
Conditions: with rad53_yeast RAD53, P22216

Row | effect of a mutation on the interaction | Variant
5 | disrupting interaction | T305A
